This note sets out measurements from US12503518B2, “Heparanase-neutralizing A54 monoclonal antibody” (TECHNION RESEARCH & DEVELOPMENT FOUNDATION LIMITED, priority 2020, dated 2025).

Experiment [1] has as its system Luc-U87 human glioma cells. In words: U87 glioma tumor growth in NOD/SCID mice, IVIS imaging. In kind it is in vivo. Particulars: s.c. tumors, 500 μg/mouse, 3 times/week; vs PBS; P=0.04. Here is the method:
U87 glioma. Cells from exponential cultures of Luciferase labeled U87 glioma cells were detached with trypsin/EDTA, washed with PBS and brought to a concentration of 5×10^7 cells/ml. Cell suspension (5×10^6/0.1 ml) was inoculated subcutaneously at the right flank of 5-weeks old female SCID/Beige mice (n=7). Three days after cell inoculation, mice are randomly assigned to 2 cohorts (5-10 mice each) receiving (a) vehicle (PBS); and (b) A54 mAb (500 μg/mouse, 3 times/week). Tumor development is inspected (once a week) by IVIS imaging following administration of luciferin (see below) as described (Barash et al. FASEB J 2010; 24:1239-48, Barash et al., J Natl Cancer Inst. 110:1102-1114, 2018). […]
IVIS imaging. […] Imaging is performed in real time, is non-invasive and provides quantitative data. […] Light emitted from the bioluminescent cells is detected by the IVIS camera system with images quantified for tumor burden using a log-scale color range set at 5×10^4 to 1×10^7 and measurement of total photon counts per second (PPS) using Living Image software (Xenogen).
Similarly, Luc-U87 human glioma cells (5×10^6/0.1 ml) were inoculated subcutaneously (s.c.) at the right flank of 5-weeks old female NOD/SCID mice (n=5). […] Tumor growth was evaluated by IVIS imaging (FIGS. 5D and 5E) and quantification of luciferase signals is shown graphically (FIG. 5F).

In a further experiment the test system is U87 glioma cells. Nature of the experiment: Matrigel invasion assay. In kind it is cell-based, human. The following applies: antibody 2 g, 6 h, vs control mouse IgG; p=0.001; FIG. 4C. How it is done: Matrigel invasion assay. Invasion assay was performed using modified Boyden chambers with polycarbonate Nucleopore membrane, essentially as described (Arvatz et al. 2011, ibid.). Briefly, filters (6.5 mm in diameter, 8 μm pore-size) were coated with Matrigel (30 μl); Cells (2×10^5) in 100 μl of serum-free medium were seeded in triplicate on the upper part of each chamber in the presence of the indicated antibody, and the lower compartment was filled with 600 μl medium supplemented with 10% FCS. After incubation for 5 h at 37° C. in a 5% CO2 incubator, non-invading cells on the upper surface of the filter were wiped with a cotton swab, and migrated cells on the lower surface of the filter were fixed, stained with 0.5% crystal violet (Sigma) and counted by examination of at least seven microscopic fields (Barash et al., J Natl Cancer Inst. 110:1102-1114, 2018).
Thereafter, the antibody effect on cell invasion was examined. Briefly, U87 glioma cells (1×10^5) were plated onto Matrigel-coated 8-μm Transwell filters in the presence of control mouse IgG or mAb A54 ([…]). Invading cells adhering to the lower side of the membrane were visualized after 6 h (FIGS. 4A-B) and quantified (FIG. 4C; number of invading cells per high power field; *p=0.001) as described in ‘Methods’.

In experiment [2] the test system is 4T1 breast carcinoma cells. In words: 4T1 breast carcinoma spontaneous metastasis, orthotopic syngeneic Balb/c model. In kind it is in vivo, mouse. How it is done:
4T1 mouse breast carcinoma (spontaneous metastasis). Luciferase labeled 4T1 breast carcinoma cells (1×10^5/Balb/c mouse) are injected directly into the third mammary fat pad and treatment of mice (PBS control vs. mAb A54 500 μg/mouse, 3 times/week began 3 days after 4T1 cell inoculation. Mice were randomized into two groups of 6 mice, 4 days postinoculation (Day 0). On day 15 of the study the mammary fat pad including the primary tumor was excised on all mice while under 2% Isoflurane anaesthetic. Mice were treated with mAb A54 as described above and IVIS bioluminescent imaging is performed 12 and 18 days after mastectomy. At termination, mice are sacrificed and the number of overt macrometastases on the surface of the lungs was enumerated manually (Hammond et al., PLoS One 2012; 7(12):e52175).
IVIS imaging. Bioluminescent imaging of luciferase-expressing tumors is performed with a highly sensitive, cooled charge coupled device (CCD) camera mounted in a light-tight specimen box (IVIS; Xenogen Corp., Waltham, MA). Imaging is performed in real time, is non-invasive and provides quantitative data. Briefly, mice are injected intraperitoneally with D-luciferin substrate at 150 mg/kg, anesthetized and placed onto a warmed stage inside the light-tight camera box, with continuous exposure to isoflurane (EZAnesthesia, Palmer, PA). Light emitted from the bioluminescent cells is detected by the IVIS camera system with images quantified for tumor burden using a log-scale color range set at 5×10^4 to 1×10^7 and measurement of total photon counts per second (PPS) using Living Image software (Xenogen).
In subsequent studies, the effect of mAb A54 on cancer metastasis, the hallmark of heparanase activity, was investigated. A syngeneic breast carcinoma model was applied, which resembles the scenario in humans. Briefly, luciferase labeled 4T1 breast carcinoma cells (0.5×10^5) were orthotopically injected into the third mammary fat pad of Balb/c mice. Treatment of the mice (PBS control vs. mAb A54; 500 μg/mouse, 3 times/week) began 3 days after 4T1 cell inoculation. […] On day 15 of the study the mammary fat pad including the primary tumor was excised from all mice (under 2% Isoflurane anesthetic) and weighed. […] Mice were further treated with mAb A54 as described above and IVIS bioluminescent imaging was performed on day 35 (e.g., […]).

For the next experiment, the system named is EMT-6 luciferase cells. In words: EMT-6 breast carcinoma tumor growth in Balb/c mice. In kind it is in vivo. Particulars: 360 μg/mouse, 2 times/week; vs PBS. How it is done: In subsequent studies, the effect of mAb A54 on breast carcinoma tumor growth was investigated. Balb/c mice (n=3) were inoculated in the mammary fad pad with EMT-6 luciferase cells (0.5×10^6), and mice were treated with A54 mAb (360 μg/mouse, 2 times/week) or PBS as control. Tumor growth was evaluated by IVIS imaging (FIGS. 9A and 9B) and quantification of luciferase signals is shown graphically (FIG. 9C). At the end of the experiment, tumors were resected and weighted (FIG. 9D).

B1: mAb A54: heparanase-neutralizing murine monoclonal antibody, IgG1-Kappa; VH SEQ ID NO: 7, VL SEQ ID NO: 8; binds HBD-II of heparanase (antibody, listed as Mus musculus, V domains shown)
VH: QVQLQQSGAELAKPGASVRMSCKASGYTFTNYWMHWVKQRPGQGLEWIGYINPTTGYTEYNQKFKDKATLTADKSSSTAYMQLSSLTSEDSAVYYCARGGAGYDYDEDYAMDYWGQGTSVTVSS
VL: DIVLTQSPASLAVSLGQRATISCRASESVEYFGTSYMNWYQQKPGQPPKLLIYLASILESGIPARFSGSGSGTDFTLNIHPVEEEDAATYYCQQSNEDPYTFGGGTKLEIK
Turning to B1, the “glioma tumor growth rate (IVIS luciferase signal)” value in experiment [1] is “marked inhibition of the glioma tumor growth rate”. Further, in the experiment on U87 glioma cells, the “attenuation of invasion of U87 glioma cells through Matrigel” value is recorded as roughly 90%. In addition, the “luciferase signal generated by the primary tumors” value in experiment [2] (500 μg/mouse, 3 times/week, IVIS on day 12, vs PBS) is given as “no differences in the luciferase signal”. Also, the “lung metastases (IVIS signal after mastectomy)” value in experiment [2] (500 μg/mouse, 3 times/week, IVIS on day 35, two out of 5 untreated mice developed lung metastases) is “hardly-detected signal”. Besides, in experiment [2] (500 μg/mouse, 3 times/week, excised day 15, vs untreated), the “weight of excised primary tumors” value is “no difference in weights”. Further, the “inhibition of lung colonization” value in experiment [2] (repeated experiment with similar results) is “almost complete inhibition of lung colonization”. For the same molecule, in the experiment on EMT-6 luciferase cells, the “breast carcinoma tumor growth (IVIS signal, tumor weight)” value is recorded as “attenuates the growth of breast carcinoma”.
